Test results as given in patent publication US20110189154.

T1: Tsa1 (S. cerevisiae 2-Cys peroxyredoxin), P34760
T1 chain: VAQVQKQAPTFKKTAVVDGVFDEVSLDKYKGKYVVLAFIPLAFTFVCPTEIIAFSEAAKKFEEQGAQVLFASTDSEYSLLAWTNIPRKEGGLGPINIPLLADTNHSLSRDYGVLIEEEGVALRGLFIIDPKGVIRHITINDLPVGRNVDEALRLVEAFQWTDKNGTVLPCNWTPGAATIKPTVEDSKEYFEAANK

B1: Srx1^Cys106S (S. cerevisiae Srx1 with Cys106 changed to serine) (protein)
chain: MSLQSNSVKPTEIPLSEIRRPLAPVLDPQKIDAMVATMKGIPTASKTCSLEQAEAAASAGELPPVDVLGVRVKGQTLYYAFGGCHRLQAYDRRARETQNAAFPVRSRVLPATPRQIRMYLGSSLDIE
B2: Srx1^Cys48S (S. cerevisiae Srx1 with Cys48 changed to serine) (protein)
chain: MSLQSNSVKPTEIPLSEIRRPLAPVLDPQKIDAMVATMKGIPTASKTSSLEQAEAAASAGELPPVDVLGVRVKGQTLYYAFGGCHRLQAYDRRARETQNAAFPVRCRVLPATPRQIRMYLGSSLDIE

Molecular target: T1, Tsa1 (S. cerevisiae 2-Cys …)

Row | Protein | reduction of the Cys-SO2H form of Tsa1
1 | B1 | the other cysteine mutants have no effect for Srx1^Cys106S
2 | B2 | a minor effect for Srx1^Cys48S
